Results reported in patent publication US20160279215A1, “NOVEL PEPTIDES AND COMBINATION OF PEPTIDES FOR USE IN IMMUNOTHERAPY AGAINST VARIOUS TUMORS” (immatics biotechnologies GmbH, priority 2015, published 2016).

Target: T1, HLA-A*02:01 (human)
T1 construct: MHC monomers captured on streptavidin plates; the UV-sensitive peptide is cleaved and exchanged with the test peptide; also called peptide-receptive MHC molecules; MHC class I
Test: UV ligand-exchange ELISA (anti-b2m); +++ = exchange yield >=50
Excerpt: Candidate peptides for T cell based therapies according to the present invention were further tested for their MHC binding capacity (affinity). The individual peptide-MHC complexes were produced by UV-ligand exchange, where a UV-sensitive peptide is cleaved upon UV-irradiation, and exchanged with the peptide of interest as analyzed. Only peptide candidates that can effectively bind and stabilize the peptide-receptive MHC molecules prevent dissociation of the MHC complexes. To determine the yield of the exchange reaction, an ELISA was performed based on the detection of the light chain (β2m) of stabilized MHC complexes. The assay was performed as generally described in Rodenko et al. (Rodenko et al., 2006).
96 well MAXISorp plates (NUNC) were coated over night with 2 ug/ml streptavidin in PBS at room temperature, washed 4× and blocked for 1 h at 37° C. in 2% BSA containing blocking buffer. Refolded HLA-A*02:01/MLA-001 monomers served as standards, covering the range of 15-500 ng/ml. Peptide-MHC monomers of the UV-exchange reaction were diluted 100 fold in blocking buffer. Samples were incubated for 1 h at 37° C., washed four times, incubated with 2 ug/ml HRP conjugated anti-β2m for 1 h at 37° C., washed again and detected with TMB solution that is stopped with […]. Absorption was measured at 450 nm. Candidate peptides that show a high exchange yield (preferably higher than 50%, most preferred higher than 75%) are generally preferred for a generation and production of antibodies or fragments thereof, and/or T cell receptors or fragments thereof, as they show sufficient avidity to the MHC molecules and prevent dissociation of the MHC complexes.

| Binder | peptide exchange yield [%] |
| --- | --- |
| NVAEIVIHI | 50 to 75 |
| VLDGKVAVV | 50 to 75 |
| LLWGNLPEI | 50 to 75 |
| MLLDTVQKV | 50 to 75 |
| ALAGIVTNV | 50 to 75 |
| IVTEIISEI | 50 to 75 |
| FLTEMVHFI | 50 to 75 |
| ALLDGALQL | 50 to 75 |
| TLLTFFHEL | 50 to 75 |
| ALNESLVEC | 50 to 75 |
| YLLDMPLWYL | 50 to 75 |
| LMQDSRLYL | 50 to 75 |
| ILAEEPIYIRV | 50 to 75 |
| HLWGHALFL | 50 to 75 |
| FLIENLLAA | 50 to 75 |
| ALLEQTGDMSL | 50 to 75 |
| VLFGELPAL | 50 to 75 |
| YLFSQGLQGL | 50 to 75 |
| ALLQALMEL | 50 to 75 |
| TLYNPERTITV (also called IGF-004) | 50 to 75 |
| ALYPKEITL | 50 to 75 |
| ALADGIKSFLL | 50 to 75 |
| VLMQDSRLYL | 50 to 75 |

| Binder | peptide exchange yield [%] |
| --- | --- |
| YLYQILQGI | 50 to 75 |
| HLFDKIIKI | 50 to 75 |
| KLLSLLEEA | 50 to 75 |
| GLLETTGLLAT | 50 to 75 |
| VIIKGLEEITV | 50 to 75 |
| ALSELLQQV | 50 to 75 |
| FLMKNSDLYGA | 50 to 75 |
| SLITGQDLLSV | 50 to 75 |
| AVFNLVHVV | 50 to 75 |
| IITEVITRL | 50 to 75 |
| LLLPLELSLA | 50 to 75 |
| VLEDKVLSV | 50 to 75 |
| LLLEAVWHL | 50 to 75 |
| GLLGKVTSV | 50 to 75 |
| FTAEFLEKV | 50 to 75 |
| QLMNLIRSV | 50 to 75 |
| RMPTVLQCV | 50 to 75 |
| KISDFGLATV | 50 to 75 |
| YLEDGFAYV | 50 to 75 |
| LLWGHPRVALA (also called MXRA5-003) | 50 to 75 |
| FLPVSVVYV | 50 to 75 |
| YLVPGLVAA | 50 to 75 |
| HLLGEGAFAQV | 50 to 75 |

| Binder | peptide exchange yield [%] |
| --- | --- |
| GLAALAVHL | 50 to 75 |
| KLIDHQGLYL | 50 to 75 |
| FLNDIFERI | 50 to 75 |
| KLLAVIHEL (also called RAD54B-002) | 50 to 75 |
| TLNTLDINL | 50 to 75 |
| SLVENIHVL | 50 to 75 |
| KIWEELSVLEV (also called MAGEA3-003) | 50 to 75 |
| KLQEELNKV | 50 to 75 |
| KLLPMVIQL | 50 to 75 |
| VLIEYNFSI | 50 to 75 |
| GLVDIMVHL | 50 to 75 |
| VLTGQVHEL | 50 to 75 |
| ALYGNVQQV | 50 to 75 |
| ILLSVLHQL | 50 to 75 |
| KLQEEIPVL | 50 to 75 |
| SIIEYLPTL | 50 to 75 |
| KQFEGTVEI | 50 to 75 |
| FLLDKPQDLSI | 50 to 75 |
| SLFSNIESV | 50 to 75 |
| GLNGFNVLL | 50 to 75 |
| TVLQELINV | 50 to 75 |
